According to patent US20220267436A1 (NANJING GENSCRIPT BIOTECH, published 2022):

T1: human LAG-3 (human, UniProt P18627 23-525)
T1 construct: whole, on cells; also called LAG-3 antigen
T1 sequence (looked up): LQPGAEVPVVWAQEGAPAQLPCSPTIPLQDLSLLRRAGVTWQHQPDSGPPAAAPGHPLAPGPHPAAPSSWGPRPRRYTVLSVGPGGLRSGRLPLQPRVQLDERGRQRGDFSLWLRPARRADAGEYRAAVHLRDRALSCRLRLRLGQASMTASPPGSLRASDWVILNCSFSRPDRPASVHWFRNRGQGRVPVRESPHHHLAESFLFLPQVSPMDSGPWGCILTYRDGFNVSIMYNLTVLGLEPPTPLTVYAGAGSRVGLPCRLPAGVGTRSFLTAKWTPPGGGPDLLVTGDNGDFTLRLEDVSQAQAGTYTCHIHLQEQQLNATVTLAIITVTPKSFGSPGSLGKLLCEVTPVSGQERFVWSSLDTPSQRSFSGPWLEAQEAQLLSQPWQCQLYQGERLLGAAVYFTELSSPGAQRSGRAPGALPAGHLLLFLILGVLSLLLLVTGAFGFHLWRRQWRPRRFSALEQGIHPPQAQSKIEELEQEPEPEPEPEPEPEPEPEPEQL


How the values were obtained:
[1] = biological target: T1, human LAG-3; assay: flow cytometry on CHO-K1 cells expressing human LAG-3
Protocol: (§1) For the constructed series of bispecific antibodies, the affinity of these samples with antigens was measured by using a flow cytometer. […] Then, an antibody-antigen binding curve was generated based on the geometric mean, raw data of four parameters was plotted by using the […] Prism V6.02 software, and a best fitted value program was compiled to analyze EC₅₀.

[2] = biological target: T2, human CD47 (human, UniProt Q08722 19-323); assay: flow cytometry on CHO-K1 cells expressing human CD47
T2 construct: whole, on cells; also called CD47 antigen; integrin associated protein
T2 sequence (Q08722 19-323): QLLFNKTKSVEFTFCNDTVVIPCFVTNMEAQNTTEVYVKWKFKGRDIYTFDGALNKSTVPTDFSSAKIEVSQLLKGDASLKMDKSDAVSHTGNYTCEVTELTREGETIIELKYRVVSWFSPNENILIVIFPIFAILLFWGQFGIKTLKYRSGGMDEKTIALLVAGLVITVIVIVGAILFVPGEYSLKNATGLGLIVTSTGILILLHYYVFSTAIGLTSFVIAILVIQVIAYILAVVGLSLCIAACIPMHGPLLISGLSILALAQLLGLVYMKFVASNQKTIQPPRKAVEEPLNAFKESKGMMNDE
Protocol: as §1

binding result [1]	binding result [2]	Binder
binds		bispecific antibody LAG3-G9-LN (bispecific antibody, human IgG4 S228P, kappa, Two identical fused chains and two identical natural chains; also called L4 + H0) heavy: not shown light: EVQLVESGGGLVQPGGSLRLSCAASGYTVSSYCMGWFRQAPGKGREGVSAIDSDGSVSYADSVKGRFTISKDNSKNTLYLQMNSLRAEDTAVYFCAADLCWVDQDQGEYNTWGQGTLVTVSSGGGGSGGGSEIVLTQSPATLSLSPGERATLSCRASENVGTYISWYQQKPGQAPRLLIYGASNRYTGIPARFSGSGSGTDFTLTISSLEPEDFAVYYCGESYGHLYTFGGGTKVEIKRTVAAPSVFIFPPSDEQLKSGTASVVCLLNNFYPREAKVQWKVDNALQSGNSQESVTEQDSKDSTYSLSSTLTLSKADYEKHKVYACEVTHQGLSSPVTKSFNRGEC
binds		bispecific antibody LAG3-E-LN (bispecific antibody, human IgG4 S228P, kappa, Two identical fused chains and two identical natural chains; also called L2 + H0) heavy: not shown light: EVQLVESGGGLVQPGGSLRLSCAASGYTVSSYCMGWFRQAPGKGREGVSAIDSDGSVSYADSVKGRFTISKDNSKNTLYLQMNSLRAEDTAVYFCAADLCWVDQDQGEYNTWGQGTLVTVSSEPKSSDKTHTSPPSPEIVLTQSPATLSLSPGERATLSCRASENVGTYISWYQQKPGQAPRLLIYGASNRYTGIPARFSGSGSGTDFTLTISSLEPEDFAVYYCGESYGHLYTFGGGTKVEIKRTVAAPSVFIFPPSDEQLKSGTASVVCLLNNFYPREAKVQWKVDNALQSGNSQESVTEQDSKDSTYSLSSTLTLSKADYEKHKVYACEVTHQGLSSPVTKSFNRGEC
binds		bispecific antibody LAG3-G15-LN (bispecific antibody, human IgG4 S228P, kappa, Two identical fused chains and two identical natural chains; also called L6 + H0) heavy: not shown light: EVQLVESGGGLVQPGGSLRLSCAASGYTVSSYCMGWFRQAPGKGREGVSAIDSDGSVSYADSVKGRFTISKDNSKNTLYLQMNSLRAEDTAVYFCAADLCWVDQDQGEYNTWGQGTLVTVSSGGGGSGGGGSGGGGSEIVLTQSPATLSLSPGERATLSCRASENVGTYISWYQQKPGQAPRLLIYGASNRYTGIPARFSGSGSGTDFTLTISSLEPEDFAVYYCGESYGHLYTFGGGTKVEIKRTVAAPSVFIFPPSDEQLKSGTASVVCLLNNFYPREAKVQWKVDNALQSGNSQESVTEQDSKDSTYSLSSTLTLSKADYEKHKVYACEVTHQGLSSPVTKSFNRGEC
binds		bispecific antibody LAG3-E-LC (bispecific antibody, human IgG4 S228P, kappa, Two identical fused chains and two identical natural chains; also called L1 + H0) heavy: not shown light: EIVLTQSPATLSLSPGERATLSCRASENVGTYISWYQQKPGQAPRLLIYGASNRYTGIPARFSGSGSGTDFTLTISSLEPEDFAVYYCGESYGHLYTFGGGTKVEIKRTVAAPSVFIFPPSDEQLKSGTASVVCLLNNFYPREAKVQWKVDNALQSGNSQESVTEQDSKDSTYSLSSTLTLSKADYEKHKVYACEVTHQGLSSPVTKSFNRGECEPKSSDKTHTSPPSPEVQLVESGGGLVQPGGSLRLSCAASGYTVSSYCMGWFRQAPGKGREGVSAIDSDGSVSYADSVKGRFTISKDNSKNTLYLQMNSLRAEDTAVYFCAADLCWVDQDQGEYNTWGQGTLVTVSS
binds	binds	bispecific antibody LAG3-G9-LC (bispecific antibody, human IgG4 S228P, kappa, Two identical fused chains and two identical natural chains; also called L3 + H0) heavy: not shown light: EIVLTQSPATLSLSPGERATLSCRASENVGTYISWYQQKPGQAPRLLIYGASNRYTGIPARFSGSGSGTDFTLTISSLEPEDFAVYYCGESYGHLYTFGGGTKVEIKRTVAAPSVFIFPPSDEQLKSGTASVVCLLNNFYPREAKVQWKVDNALQSGNSQESVTEQDSKDSTYSLSSTLTLSKADYEKHKVYACEVTHQGLSSPVTKSFNRGECGGGGSGGGSEVQLVESGGGLVQPGGSLRLSCAASGYTVSSYCMGWFRQAPGKGREGVSAIDSDGSVSYADSVKGRFTISKDNSKNTLYLQMNSLRAEDTAVYFCAADLCWVDQDQGEYNTWGQGTLVTVSS
binds	binds	bispecific antibody LAG3-G15-LC (bispecific antibody, human IgG4 S228P, kappa, Two identical fused chains and two identical natural chains; also called L5 + H0) heavy: not shown light: EIVLTQSPATLSLSPGERATLSCRASENVGTYISWYQQKPGQAPRLLIYGASNRYTGIPARFSGSGSGTDFTLTISSLEPEDFAVYYCGESYGHLYTFGGGTKVEIKRTVAAPSVFIFPPSDEQLKSGTASVVCLLNNFYPREAKVQWKVDNALQSGNSQESVTEQDSKDSTYSLSSTLTLSKADYEKHKVYACEVTHQGLSSPVTKSFNRGECGGGGSGGGGSGGGGSEVQLVESGGGLVQPGGSLRLSCAASGYTVSSYCMGWFRQAPGKGREGVSAIDSDGSVSYADSVKGRFTISKDNSKNTLYLQMNSLRAEDTAVYFCAADLCWVDQDQGEYNTWGQGTLVTVSS
	binds	anti-CD47 monoclonal antibody (mAb) (antibody, human IgG4 S228P, kappa, V domains shown, Full-length antibody composed of heavy chain H0 and light chain L0; also called anti-CD47 mAb; anti-CD47 antibody control) VH: EVQLVQSGAEVKKPGSSVKVSCKASGYSFTHHWIHWVRQAPGQGLEWMGMIDASDSETRLSQKFKDRVTITADKSTSTAYMELSSLRSEDTAVYYCARLGRYYFDYWGQGTTVTVSS VL: EIVLTQSPATLSLSPGERATLSCRASENVGTYISWYQQKPGQAPRLLIYGASNRYTGIPARFSGSGSGTDFTLTISSLEPEDFAVYYCGESYGHLYTFGGGTKVEIKR
binds		bispecific antibody LAG3-E-HC (bispecific antibody, human IgG4 S228P, kappa, Two identical fused chains and two identical natural chains; also called H1 + L0) heavy: not shown light: EIVLTQSPATLSLSPGERATLSCRASENVGTYISWYQQKPGQAPRLLIYGASNRYTGIPARFSGSGSGTDFTLTISSLEPEDFAVYYCGESYGHLYTFGGGTKVEIKRTVAAPSVFIFPPSDEQLKSGTASVVCLLNNFYPREAKVQWKVDNALQSGNSQESVTEQDSKDSTYSLSSTLTLSKADYEKHKVYACEVTHQGLSSPVTKSFNRGEC
binds		bispecific antibody LAG3-G9-HN (bispecific antibody, human IgG4 S228P, kappa, Two identical fused chains and two identical natural chains; also called H4 + L0) heavy: not shown light: EIVLTQSPATLSLSPGERATLSCRASENVGTYISWYQQKPGQAPRLLIYGASNRYTGIPARFSGSGSGTDFTLTISSLEPEDFAVYYCGESYGHLYTFGGGTKVEIKRTVAAPSVFIFPPSDEQLKSGTASVVCLLNNFYPREAKVQWKVDNALQSGNSQESVTEQDSKDSTYSLSSTLTLSKADYEKHKVYACEVTHQGLSSPVTKSFNRGEC
binds		bispecific antibody LAG3-G9-HC (bispecific antibody, human IgG4 S228P, kappa, Two identical fused chains and two identical natural chains; also called LAGS-G9-HC; H3 + L0) heavy: not shown light: EIVLTQSPATLSLSPGERATLSCRASENVGTYISWYQQKPGQAPRLLIYGASNRYTGIPARFSGSGSGTDFTLTISSLEPEDFAVYYCGESYGHLYTFGGGTKVEIKRTVAAPSVFIFPPSDEQLKSGTASVVCLLNNFYPREAKVQWKVDNALQSGNSQESVTEQDSKDSTYSLSSTLTLSKADYEKHKVYACEVTHQGLSSPVTKSFNRGEC
binds		bispecific antibody LAG3-G15-HN (bispecific antibody, human IgG4 S228P, kappa, Two identical fused chains and two identical natural chains; also called H6 + L0) heavy: not shown light: EIVLTQSPATLSLSPGERATLSCRASENVGTYISWYQQKPGQAPRLLIYGASNRYTGIPARFSGSGSGTDFTLTISSLEPEDFAVYYCGESYGHLYTFGGGTKVEIKRTVAAPSVFIFPPSDEQLKSGTASVVCLLNNFYPREAKVQWKVDNALQSGNSQESVTEQDSKDSTYSLSSTLTLSKADYEKHKVYACEVTHQGLSSPVTKSFNRGEC
binds		bispecific antibody LAG3-G15-HC (bispecific antibody, human IgG4 S228P, kappa, Two identical fused chains and two identical natural chains; also called H5 + L0) heavy: not shown light: EIVLTQSPATLSLSPGERATLSCRASENVGTYISWYQQKPGQAPRLLIYGASNRYTGIPARFSGSGSGTDFTLTISSLEPEDFAVYYCGESYGHLYTFGGGTKVEIKRTVAAPSVFIFPPSDEQLKSGTASVVCLLNNFYPREAKVQWKVDNALQSGNSQESVTEQDSKDSTYSLSSTLTLSKADYEKHKVYACEVTHQGLSSPVTKSFNRGEC
binds		bispecific antibody LAG3-E-HN (bispecific antibody, human IgG4 S228P, kappa, Two identical fused chains and two identical natural chains; also called H2 + L0) heavy: not shown light: EIVLTQSPATLSLSPGERATLSCRASENVGTYISWYQQKPGQAPRLLIYGASNRYTGIPARFSGSGSGTDFTLTISSLEPEDFAVYYCGESYGHLYTFGGGTKVEIKRTVAAPSVFIFPPSDEQLKSGTASVVCLLNNFYPREAKVQWKVDNALQSGNSQESVTEQDSKDSTYSLSSTLTLSKADYEKHKVYACEVTHQGLSSPVTKSFNRGEC
